Reference: US20180371051A1 (published 2018)

What was measured:
soluble, wild-type MICA [1] = biological target: T1, soluble, wild-type MICA (human, UniProt Q29983 24-299); experiment: SPR
T1 chain: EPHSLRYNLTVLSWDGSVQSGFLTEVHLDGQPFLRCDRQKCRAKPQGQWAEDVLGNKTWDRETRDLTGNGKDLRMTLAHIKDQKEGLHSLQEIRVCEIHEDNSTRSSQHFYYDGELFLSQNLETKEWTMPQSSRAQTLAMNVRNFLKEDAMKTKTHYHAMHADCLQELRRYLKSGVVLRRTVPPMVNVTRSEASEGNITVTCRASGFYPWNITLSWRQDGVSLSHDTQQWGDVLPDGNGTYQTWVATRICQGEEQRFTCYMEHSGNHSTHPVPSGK

soluble, wild-type MICA [2] = biological target: T1, soluble, wild-type MICA; experiment: SPR; 1:1 binding model
soluble, wild-type MICA [3] = biological target: T1, soluble, wild-type MICA; experiment: SPR; Two State Reaction model

B1: NKG2D^scd (single-chain dimer form of NKG2D) (receptor)
chain: NQEVQIPLTESYCGPCPKNWICYKNNCYQFFDESKNWYESQASCMSQNASLLKVYSKEDQDLLKLVKSYHWMGLVHIPTNGSWQWEDGSILSPNLLTIIEMQKGDCALYASSFKGYIENCSTPNTYICMQRTVQIPLTESYCGPCPKNWICYKNNCYQFFDESKNWYESQASCMSQNASLLKVYSKEDQDLLKLVKSYHWMGLVHIPTNGSWQWEDGSILSPNLLTIIEMQKGDCALYASSFKGYIENCSTPNTYICMQRTV
B1 gave a Kd (soluble, wild-type MICA [1]) of 13.8 nM.

B2: NKG2D^scd7 (heptamerized single-chain NKG2D dimer, Example 2) (receptor)
chain: GSRSAGAHAGWETPEGCEQVLTGKRLMQCLPNPEDVKMALEVYKLSLEIEQLELQRDSARQSTLDKELNQEVQIPLTESYCGPCPKNWICYKNNCYQFFDESKNWYESQASCMSQNASLLKVYSKEDQDLLKLVKSYHWMGLVHIPTNGSWQWEDGSILSPNLLTIIEMQKGDCALYASSFKGYIENCSTPNTYICMQRTVQIPLTESYCGPCPKNWICYKNNCYQFFDESKNWYESQASCMSQNASLLKVYSKEDQDLLKLVKSYHWMGLVHIPTNGSWQWEDGSILSPNLLTIIEMQKGDCALYASSFKGYIENCSTPNTYICMQRTV
modifications: FITC-conjugated for flow cytometry (two fluorophores per protomer)
B2 gave a Kd (soluble, wild-type MICA [2]) of 4.6 nM, a Kd (soluble, wild-type MICA [3]) of 9.72 nM and a Kd (soluble, wild-type MICA [1]) of 4.6 nM.
